# Data: patent US12012446B2, “Epstein-Barr virus antibodies and uses thereof” (priority 2017, dated 2024)
# Molecular target: T1, EBV gH/gL (Epstein-Barr virus, UniProt P03212+P03231)
# T1 construct: expressed in transfected cells; host or cells: CHO cells
# Experiment: Flow cytometry of gH/gL-expressing CHO cells
# Type: binding
# Text: FIGS. 10A-10B show the comparison of murine E1D1 (mE1D1) and humanized E1D1 (hE1D1). FIG. 10A: Sequence comparison of mE1D1 and hE1D1. Alignment of heavy chain (i) and light chain (ii) variable region amino acid sequences by the Clustal W. Murine E1D1 heavy chain and light chain AA sequences are represented by SEQ ID NOs: 183 and 184, respectively, and humanized E1D1 heavy chain and light chain AA sequences are represented by SEQ ID NOs: 185 and 186, respectively. Regions of identical sequence are represented by *. Regions of similarity are represented by :. FIG. 10B: Flow cytometric analysis of mE1D1 and hE1D1 gH/gL specificity. CHO wild type cells and gH/gL-expressing CHO cells were stained with mE1 D1 and hE1 D1, followed by secondary goat anti-mouse or anti-human conjugated to AF488. Unstained cells and cells stained with secondary goat anti-mouse or anti-human conjugated to AF488 alone, were used as negative controls.
# Similar to Example 4, humanized E1D1 antibody was produced and its specificity was compared to mouse E1D1 by flow cytometric analysis (FIG. 10).
# Flow cytometric analysis of gp350 and gH/gL specificity was performed. CHO wild type cells and gp350 or gH/gL-expressing CHO cells were stained with primary antibodies, followed by secondary goat anti-mouse or anti-human conjugated to AF488. […]
molecule,measurement,value
"humanized E1D1: humanized anti-EBV gH/gL antibody E1D1; SEQ ID NOs: 185 and 186 (antibody, V domains shown) VH: EVQLVESGGGLVQPGGSLRLSCAASGYTFTDYVISWVRQSPGKGLEWIGEIYPESGNTYYADSVKGRATLSADKSKNTAYLQMNSLRAEDTAIYFCAEGYAMDFWGQGTLVTVSS VL: DIQMTQSPILLSASVGDRVTITCRSSQSLLHSNGNTYLHWYQQRTNGSPRLLIYKVSNRFSGVPSRFSGSGSGTDFTLTISSLQPEDEADYFCSQSIHVPRTFGAGTKVEIKR",binding specificity to EBV gH/gL by flow cytometry,did not affect its binding specificity to EBV gH/gL
